Here are results for three molecules from US20080213256A1 (MICROMET, published 2008).

One experiment addresses human CD3 complex (human, UniProt P07766 23-207; P04234 22-171; P09693 23-182). The experiment in a line: cell-based or functional assay.
The target in a further experiment is T1, CD19 (human, UniProt P15391 20-556).
T1 construct: whole, on cells; also called CD19 on CD19 positive Nalm 6 cells; NALM-6
T1 sequence (looked up): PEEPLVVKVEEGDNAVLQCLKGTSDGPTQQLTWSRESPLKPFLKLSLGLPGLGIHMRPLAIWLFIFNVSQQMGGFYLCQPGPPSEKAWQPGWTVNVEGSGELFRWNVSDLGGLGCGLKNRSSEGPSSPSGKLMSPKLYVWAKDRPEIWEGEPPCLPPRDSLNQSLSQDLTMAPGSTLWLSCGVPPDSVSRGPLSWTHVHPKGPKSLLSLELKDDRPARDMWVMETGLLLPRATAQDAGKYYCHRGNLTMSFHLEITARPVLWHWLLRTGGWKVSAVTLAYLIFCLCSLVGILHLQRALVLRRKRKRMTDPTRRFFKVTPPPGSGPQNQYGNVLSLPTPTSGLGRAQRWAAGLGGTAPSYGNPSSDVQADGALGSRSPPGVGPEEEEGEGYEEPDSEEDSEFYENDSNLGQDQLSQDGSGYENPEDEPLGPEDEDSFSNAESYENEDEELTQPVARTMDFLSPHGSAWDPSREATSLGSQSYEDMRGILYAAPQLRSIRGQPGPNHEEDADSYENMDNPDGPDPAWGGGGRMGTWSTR
Nature of the experiment: FACS on Nalm6 cells, detection via His tag. The procedure: CD19 positive Nalm 6 cells (human B cell precursor leukaemia) and CD3 positive Jurkat cells (human T cell leukemia) were used. 200,000 Nalm 6 cells and 200,000 Jurkat cells were incubated with 50 μl the pure cell culture supernatant of CHO cells transfected with the anti-CD19xhum. anti-CD3 specific polypeptide for 30 min on ice. The cells were washed twice in PBS. Then the binding of the construct was detected via its C-terminal Histidin Tag with a murine Penta H is antibody (diluted 1:20 in 50 μl PBS with 2% FCS; Qiagen) followed by a washing step and a Phycoerythrin conjugated Fc gamma specific antibody (Dianova), diluted 1:100 in 50 μl PBS with 2% FCS (FIG. 2A, thick line). As negative control fresh cell culture medium instead of cell culture supernatant was used (FIG. 2, thin line).
Cells were analysed by flow cytometry on a FACS-Calibur (Becton Dickinson, Heidelberg). FACS staining and measuring of the fluorescence intensity were performed as described in Current Protocols in Immunology (Coligan, Kruisbeek, Margulies, Shevach and Strober, Wiley-Interscience, 2002). The binding activity of the bispecific binding molecule was compared to the binding activity of the corresponding control bispecific antibody with the humanized OKT3 part as described in prior art.

Experiment [1] has as its target T2, EpCAM (UniProt P16422 24-314, limits assumed).
T2 construct: whole, on cells; also called EpCAM on EpCAM positive Kato III cells
T2 sequence (looked up): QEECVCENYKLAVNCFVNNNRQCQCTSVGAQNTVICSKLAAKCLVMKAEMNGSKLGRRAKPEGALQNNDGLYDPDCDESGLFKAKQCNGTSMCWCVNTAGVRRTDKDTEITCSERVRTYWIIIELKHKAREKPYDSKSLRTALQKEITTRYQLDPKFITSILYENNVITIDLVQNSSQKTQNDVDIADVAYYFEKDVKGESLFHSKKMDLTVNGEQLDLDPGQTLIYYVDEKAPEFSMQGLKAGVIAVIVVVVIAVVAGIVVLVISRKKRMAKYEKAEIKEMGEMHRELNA
Nature of the experiment: FACS on KatoIII cells, detection via His tag.

Experiment [2] has as its target T2, EpCAM. Nature of the experiment: FACS on Kato III cells, CHO supernatant (FIG. 2C).

B1: bispecific anti-CD19xhum. anti-CD3 antibody construct (SEQ ID NO.: 20) (bispecific antibody)
chain: DIQLTQSPASLAVSLGQRATISCKASQSVDYDGDSYLNWYQQIPGQPPKLLIYDASNLVSGIPPRFSGSGSGTDFTLNIHPVEKVDAATYHCQQSTEDPWTFGGGTKLEIKGGGGSGGGGSGGGGSQVQLQQSGAELVRPGSSVKISCKASGYAFSSYWMNWVKQRPGQGLEWIGQIWPGDGDTNYNGKFKGKATLTADESSSTAYMQLSSLASEDSAVYFCARRETTTVGRYYYAMDYWGQGTTVTVSSGGGGSQVQLVQSGGGVVQPGRSLRLSCKSSGYTFTRYTMHWVRQAPGKGLEWIGYINPSRGYTNYNQKVKDRFTISRDNSKNTAFLQMDSLRPEDTGVYFCARYYDDHYCLDYWGQGTPVTVSSVEGGSGGSGGSGGSGGVDDIQMTQSPSSLSASVGDRVTITCRASSSVSYMNWYQQTPGKAPKRWIYDTSKVASGVPSRFSGSGSGTDYTFTISSLQPEDIATYYCQQWSSNPLTFGQGTKLQIT
notes: Bispecific single chain Fv made in CHO cells; FACS used raw culture supernatant; the cytotoxicity assay used purified protein; also called anti-CD19xhum. anti-CD3 (improved hum. OKT3); bispecific humanized improved CD3 (hum. anti-CD3)
Take B1: in the experiment with human CD3 complex, the “cytotoxic activity (EC50), calcein release from NALM-6 target cells with CD4-positive CB15 T-cells” value is 50 pg/mL. Also, in the experiment with CD19, the binding result is “binds”.

B2: bispecific anti-EpCAM (3-1)x hum. anti-CD3 antibody construct (SEQ ID NO.: 34) (bispecific antibody)
chain: ELVMTQSPSYLAASPGETITINCRASKSISKYLAWYQEKPGKTNKLLIYSGSTLQSGIPSRFSGSGSGTDFTLTISSLEPEDFAMYYCQQHNEYPYTFGGGTKLEIKGGGGSGGGGSGGGGSEVQLLEQSGAELVKPGASVKISCKASGYAFTNYWLGWVKQRPGHGLEWIGDLFPGSGNTHYNERFRGKATLTADKSSSTAFMQLSSLTSEDSAVYFCARLRNWDEAMDYWGQGTTVTVSSGGGGSQVQLVQSGGGVVQPGRSLRLSCKSSGYTFTRYTMHWVRQAPGKGLEWIGYINPSRGYTNYNQKVKDRFTISRDNSKNTAFLQMDSLRPEDTGVYFCARYYDDHYCLDYWGQGTPVTVSSVEGGSGGSGGSGGSGGVDDIQMTQSPSSLSASVGDRVTITCRASSSVSYMNWYQQTPGKAPKRWIYDTSKVASGVPSRFSGSGSGTDYTFTISSLQPEDIATYYCQQWSSNPLTFGQGTKLQIT
notes: Bispecific single chain Fv, tested as CHO culture supernatant
As for B2, the binding result in the experiment with EpCAM [1] is on record as “binds”.

B3: bispecific anti-EpCAM (5-10)x hum. anti-CD3 antibody construct (SEQ ID NO.: 36) (bispecific antibody)
chain: ELVMTQSPSSLTVTAGEKVTMSCKSSQSLLNSGNQKNYLTWYQQKPGQPPKLLIYWASTRESGVPDRFTGSGSGTDFTLTISSVQAEDLAVYYCQNDYSYPLTFGAGTKLEIKGGGGSGGGGSGGGGSEVQLLEQSGAELVRPGTSVKISCKASGYAFTNYWLGWVKQRPGHGLEWIGDIFPGSGNIHYNEKFKGKATLTADKSSSTAYMQLSSLTFEDSAVYFCARLRNWDEPMDYWGQGTTVTVSSGGGGSQVQLVQSGGGVVQPGRSLRLSCKSSGYTFTRYTMHWVRQAPGKGLEWIGYINPSRGYTNYNQKVKDRFTISRDNSKNTAFLQMDSLRPEDTGVYFCARYYDDHYCLDYWGQGTPVTVSSVEGGSGGSGGSGGSGGVDDIQMTQSPSSLSASVGDRVTITCRASSSVSYMNWYQQTPGKAPKRWIYDTSKVASGVPSRFSGSGSGTDYTFTISSLQPEDIATYYCQQWSSNPLTFGQGTKLQIT
notes: as for B2
For the molecule B3, the binding result with EpCAM [2] is given as “binds”.
